Assay results published in publication PMC3868556.

Legend:
[1] = tested on: T1, ComPsub (Neisseria subflava), UPI00280B593C; experiment: EMSA; details: SPR (ProteOn XPR36, NLC chip): 25 mM HEPES pH 7.9, 150 mM NaCl, 2.5 mM MgCl2, 0.05% Tween-20, 25 C, 30 uM ComP; EMSA: native 10% acrylamide, LightShift kit …
T1 sequence: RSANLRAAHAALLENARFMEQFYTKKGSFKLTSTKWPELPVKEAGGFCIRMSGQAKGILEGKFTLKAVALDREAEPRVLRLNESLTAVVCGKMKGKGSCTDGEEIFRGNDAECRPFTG

[2] = tested on: ComP (Neisseria meningitidis 8013 (serogroup C clinical isolate)); experiment: SPR; details: SPR (ProteOn XPR36, NLC chip): 25 mM HEPES pH 7.9, 150 mM NaCl, 2.5 mM MgCl2, 0.05% Tween-20, 25 C, 30 uM ComP; EMSA: native 10% acrylamide, LightShift kit …

GTATGGGCGGCTCGGCGTTTGGTCAGGTGTACAACAATATGAGCGGCGACGCGCCCGATTTGGACGATACAGGCCGTCTGAAAGACTTTTACGGCGTGATTCAACAGCTTGTCGCCGAAGACAAACTCTTGGCGTATCACGACCGCAGCGAC (double strand) [purL fragment with one DUSvar1]
binding [1]: binds

TGACCATGCCGTCTGAACAAAC (double strand) [DUS]
binding signal [2]: 100 % of DUS Req
